Data published in US20120184016A1, “NOVEL PROTEIN AND GENE THAT CODES THEREFOR” (priority 2009, published 2012).

Assays:
[1] = Confirmation of β-galactoside-α2,6-sialyltransferase activity with pyridylaminated lactose, HPLC; assay type: biochemical; settings: enzyme expressed by E. coli transformed with SHIZ119-N1C0/pTrc99A
Procedure: The linkage mode of sialic acid transferred to the sugar acceptor substrate can be determined by, but is not limited to, any procedure known to those skilled in the art, for example, a method using a pyridylaminated sugar chain or nuclear magnetic resonance spectroscopy (NMR) of the reaction product. The method using a pyridylaminated sugar chain involves an enzyme reaction using the pyridylaminated sugar chain as the sugar acceptor substrate. More specifically, an enzyme reaction is performed using pyridylaminated lactose (Galβ1-4Glc-PA, manufactured by Takara Bio Inc.) as a sugar acceptor substrate and CMP-NeuAc as a sugar donor substrate, and the reaction product is analyzed by high performance liquid chromatography (HPLC). From the retention time of the reaction product, the position at which sialic acid was transferred is determined.
Then, to determine the linkage mode of sialic acid, a reaction using PA-lactose as a substrate was performed. The enzyme reaction was performed using the resulting crude enzyme solution and a pyridylaminated sugar chain as the sugar acceptor substrate. As the pyridylaminated sugar chain, pyridylaminated lactose (Galβ1-4Glc-PA, manufactured by Takara Bio Inc.) was used. […] The analysis was performed under the following conditions: flow rate: 1 mL/min, column temperature: 40° C., detection: fluorescence (Ex: 320 nm, Em: 400 nm). […]

[2] = Optimum pH and optimum temperature for sialyltransferase enzyme activity; assay type: biochemical; settings: purified enzyme
Excerpt: The optimum pH and the optimum temperature of the recombinant β-galactoside-α2,6-sialyltransferase SHIZ119-N1C0 derived from the JT-SHIZ-119 strain were investigated using the purified enzyme prepared in Example 3.
Acetate buffer (pH 4.0 to 5.0), cacodylate buffer (pH 5.0 to 6.0), Bis-Tris buffer (pH 6.0 to 7.0), phosphate buffer (pH 7.0 to 8.0), TAPS buffer (pH 8.0 to 9.0), CHES buffer (pH 9.0 to 10.0), and CAPS buffer (pH 10.0 to 11.0) were each prepared and were used for enzyme activity measurement at 30° C. at various pH levels.
The enzyme activity was measured at every increment of 5° C. starting from 5° C. up to 50° C. using cacodylate buffer (pH 5.0).

B1: SHIZ119-N1C0 (protein)
chain: MCNDNQNTVDVVVSTVNDNVIENNTYQVKPIDTPTTFDSYSWIQTCGTPILKDDEKYSLSFDFVAPELDQDEKFCFEFTGDVDGKRYVTQTNLTVVAPTLEVYVDHASLPSLQQLMKIIQQKNEYSQNERFISWGRIGLTEDNAEKLNAHIYPLAGNNTSQELVDAVIDYADSKNRLNLELNTNTAHSFPNLAPILRIISSKSNILISNINLYDDGSAEYVNLYNWKDTEDKSVKLSDSFLVLKDYFNGISSEKPSGIYGRYNWHQLYNTSYYFLRKDYLTVEPQLHDLREYLGGSLKQMSWDGFSQLSKGDKELFLNIVGFDQEKLQQEYQQSELPNFVFTGTTTWAGGETKEYYAQQQVNVVNNAINETSPYYLGREHDLFFKGHPRGGIINDIILGSFNNMIDIPAKVSFEVLMMTGMLPDTVGGIASSLYFSIPAEKVSFIVFTSSDTITDREDALKSPLVQVMMTLGIVKEKDVLFWSDLPDCSSGVCIAQY
modifications: beta-galacoside-alpha-2,6-sialyltransferase from phorobacterium leiognathi (without signal peptide)
- reaction product with PA-lactose and CMP-NeuAc (linkage mode of transferred sialic acid) [1]: PA-6′-sialyllactose (Neu5Acα2-6Galβ1-4Glc-PA) was detected
- pH at which sialyltransferase enzyme activity is the highest (optimum pH) ([2]; 30° C., pH 4.0 to 11.0, FIG. 2-1): 5.0
- temperature at which sialyltransferase enzyme activity is the highest (optimum temperature) ([2]; cacodylate buffer (pH 5.0), 5° C. up to 50° C., FIG. 2-2): 35 °C
